Drawing on PMC8528861 (2021), this text covers Kd for one molecule.

What all share (assay): SPR
For orientation: SPR reads the build-up and loss of mass on a sensor chip optically.

For assay [1], the target named is M. musculus LNK SH2 domain R387H (mouse, UniProt O09039 325-438, R387H).
For the next assay, the target named is mouse SH2B SH2 domain (mouse, UniProt Q91ZM2 527-625).
Assay [2] deals with M. musculus LNK SH2 domain R387C (mouse, UniProt O09039 325-438, R387C).
Assay [3] has as its target M. musculus LNK SH2 domain (residues 324–446), wild type (mouse, UniProt O09039 324-446).

Where no end group is shown, it is not given here. [ ]: non-standard residue; d: D form. pY = N[C@@H](Cc1ccc(OP(=O)(O)O)cc1)C(=O)O

Sequence of M. musculus LNK SH2 domain (residues 324–446), wild type (O09039 324-446): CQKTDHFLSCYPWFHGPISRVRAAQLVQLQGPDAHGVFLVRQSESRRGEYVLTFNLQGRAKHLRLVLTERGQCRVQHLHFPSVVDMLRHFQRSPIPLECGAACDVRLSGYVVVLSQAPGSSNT
Sequence of M. musculus LNK SH2 domain R387H (O09039 325-438 R387H): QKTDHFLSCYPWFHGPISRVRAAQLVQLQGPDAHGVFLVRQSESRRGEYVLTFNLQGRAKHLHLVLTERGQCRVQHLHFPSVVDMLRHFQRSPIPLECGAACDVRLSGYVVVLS
Sequence of M. musculus LNK SH2 domain R387C (O09039 325-438 R387C): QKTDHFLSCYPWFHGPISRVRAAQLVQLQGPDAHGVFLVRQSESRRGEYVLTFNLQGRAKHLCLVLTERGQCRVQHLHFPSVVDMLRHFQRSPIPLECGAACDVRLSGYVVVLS

FTPD[pY]ELLTEND (also: biotin, site not given here) [biotinylated JAK2 pY813 peptide]: the Kd – broadly, the concentration at which binding is half-saturated – in assay [1] stood at 242 nM; with mouse SH2B SH2 domain, 108 nM; in assay [2] it was 76 nM; in assay [3] it was 27 nM.
